Test results published in patent US20070274991A1 (published 2007).

Target: T1, intact EGFR expressed on human mammary epithelial cells (HMECs) (human, UniProt P00533 25-1210)
T1 construct: whole, on cells; also called wild-type EGFR
Assay: radiolabeled antibody on parental HMECs
Procedure: To measure the effect on EGFR and EGFRvIII signaling of a given antibody binding to EGFR or EGFRvIII, radiolabeled antibodies were added to cultures of the HMECs described in the table above. […] When a non-neutralizing radiolabeled antibody binds to EGFR on a mammalian cell, the antibody will be internalized at a high rate if a ligand is present or if the EGFR is constitutively signaling for some other reason. When a neutralizing radiolabeled antibody binds to EGFR, signaling will stop and signaling-stimulated endocytosis will also stop.
In brief, radiolabelled antibodies were added to culture parental HMECs and to HMECs expressing EGFRvIII. At times of 0, 1, 2, 3, 5 and 10 minutes, cell samples were withdrawn, washed, and then acid-stripped to remove and measure surface-bound radiolabeled antibody. The cells were then lysed and the remaining radiolabel was measured to determine levels of internalized antibody.

binding result: binds
B1: EMD72000 (antibody, V domains shown)
VH: QVQLVQSGAEVKKPGASVKVSCKASGYTFTSHWMHWVRQAPGQGLEWIGEFNPSNGRTNYNEKFKSKATMTVDTSTNTAYMELSSLRSEDTAVYYCASRDYDYDGRYFDYWGQGTLVTVS
VL: DIQMTQSPSSLSASVGDRVTITCSASSSVTYMYWYQQKPGKAPKLLIYDTSNLASGVPSRFSGSGSGTDYTFTISSLQPEDIATYYCQQWSSHIFTFGQGTKVEIK
notes: Used fluorescently labeled in yeast display and radiolabeled in the internalization assay; also called anti-EGFR antibody EMD72000; humanized version of the murine antibody 425
